US20170260258A1

Assays:
[1] = biological target: KR127 antibody (murine monoclonal antibody)
[2] = biological target: humanized antibody HzKR127-3.1
[3] = biological target: humanized antibody HzKR127-3.2
[4] = biological target: humanized antibody HzKR127-3
humanized antibody HzKR127-3, sequence (VH, as listed by the source limits assumed, chain 1 of 2): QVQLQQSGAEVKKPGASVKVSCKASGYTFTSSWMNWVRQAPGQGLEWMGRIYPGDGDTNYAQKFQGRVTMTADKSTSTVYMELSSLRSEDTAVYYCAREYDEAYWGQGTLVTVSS
humanized antibody HzKR127-3, sequence (VL, as listed by the source limits assumed, chain 2 of 2): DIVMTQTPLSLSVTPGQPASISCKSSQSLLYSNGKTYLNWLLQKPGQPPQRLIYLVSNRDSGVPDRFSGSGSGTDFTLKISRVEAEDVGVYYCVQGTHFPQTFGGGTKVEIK

GST-pre-S1 (1st to 56th amino acids) protein, sequence (P08515 whole entry): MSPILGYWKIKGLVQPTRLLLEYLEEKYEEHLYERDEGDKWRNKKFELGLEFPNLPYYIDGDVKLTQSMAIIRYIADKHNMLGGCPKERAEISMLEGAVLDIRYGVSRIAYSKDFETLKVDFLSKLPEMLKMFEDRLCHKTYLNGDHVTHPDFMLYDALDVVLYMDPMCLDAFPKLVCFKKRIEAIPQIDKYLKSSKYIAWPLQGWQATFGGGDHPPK
humanized antibody HzKR127-3.2, sequence (VH, as listed by the source, chain 1 of 2): as the sequence (VH, as listed by the source limits assumed, chain 1 of 2) above, with N59S, D101A counted along it
humanized antibody HzKR127-3.2, sequence (VL, as listed by the source, chain 2 of 2): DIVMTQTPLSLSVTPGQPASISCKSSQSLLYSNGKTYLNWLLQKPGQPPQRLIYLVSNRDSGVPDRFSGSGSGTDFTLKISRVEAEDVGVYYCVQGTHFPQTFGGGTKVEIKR
humanized antibody HzKR127-3.1, sequence (VH, as listed by the source, chain 1 of 2): as the sequence (VH, as listed by the source limits assumed, chain 1 of 2) above, with D101A counted along it
KR127 antibody (murine monoclonal antibody), sequence (VH, as listed by the source, chain 1 of 2): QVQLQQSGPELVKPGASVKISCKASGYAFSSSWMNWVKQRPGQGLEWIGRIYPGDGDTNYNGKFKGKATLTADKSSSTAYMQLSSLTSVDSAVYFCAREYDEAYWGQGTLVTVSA
KR127 antibody (murine monoclonal antibody), sequence (VL, as listed by the source, chain 2 of 2): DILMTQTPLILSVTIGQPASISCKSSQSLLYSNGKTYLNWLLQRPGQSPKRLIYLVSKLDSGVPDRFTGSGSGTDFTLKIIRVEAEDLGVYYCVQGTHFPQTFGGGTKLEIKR

GST-pre-S1 (1st to 56th amino acids) protein (from UniProt P08515 1-218)
IC50 (read off the curve) [1]: 20 nM
IC50 (read off the curve) [2]: 6 nM
IC50 (read off the curve) [3]: 2 nM
IC50 (read off the curve) [4]: 30 nM
